Test results as given in patent US12139520B2 (priority 2020, dated 2024).
Positions count from the first letter of the chain named. Bridge positions count the residues as written; N and C are the ends. Square brackets hold non-standard residues; d marks the D form. Ends that are not written are not given here. Hyp = O=C(O)[C@@H]1C[C@@H](O)CN1

T1: hAMY3R (human, UniProt P30988)
T1 sequence 1: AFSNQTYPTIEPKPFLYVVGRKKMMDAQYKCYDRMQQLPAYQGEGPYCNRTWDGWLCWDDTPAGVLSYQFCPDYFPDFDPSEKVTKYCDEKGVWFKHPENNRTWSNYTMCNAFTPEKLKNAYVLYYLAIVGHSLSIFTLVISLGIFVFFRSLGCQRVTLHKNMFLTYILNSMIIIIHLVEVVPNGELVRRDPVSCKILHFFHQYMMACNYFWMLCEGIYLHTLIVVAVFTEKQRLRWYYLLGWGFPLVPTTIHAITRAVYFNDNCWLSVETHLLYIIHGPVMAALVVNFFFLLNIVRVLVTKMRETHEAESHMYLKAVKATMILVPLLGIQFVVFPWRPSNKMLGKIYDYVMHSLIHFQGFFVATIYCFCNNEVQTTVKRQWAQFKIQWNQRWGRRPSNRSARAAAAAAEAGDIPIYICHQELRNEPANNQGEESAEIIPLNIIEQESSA
T1 sequence 2: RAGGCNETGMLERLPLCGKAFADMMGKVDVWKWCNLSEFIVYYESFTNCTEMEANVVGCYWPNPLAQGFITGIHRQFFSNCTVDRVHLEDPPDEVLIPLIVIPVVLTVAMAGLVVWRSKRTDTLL

B1: SEQ ID NO: 171 (peptide)
peptide: GCRWGTCTVQRLAHQIYQFTDKFKDNVAPRSKISPQT[Hyp]-NH2
modifications: disulfide 2-7 (inferred); ends not checked
B2: SEQ ID NO: 187 (peptide)
peptide: GCRTGTCTVQRLAHQIYQFTDKDKDNVAPRSKVGPQG[Hyp]-NH2
modifications: disulfide 2-7 (inferred); ends not checked
B3: SEQ ID NO: 18 (peptide)
peptide: KCNFATCTVQRLAHQIYQFTDKDKDNVAPPTEVGSNGP
B4: SEQ ID NO: 192 (peptide)
peptide: GCRMGTCTVQRLAHQIYQFTNKDKDNVAPRSKISPQT[Hyp]-NH2
modifications: disulfide 2-7 (inferred); ends not checked
B5: SEQ ID NO: 173 (peptide)
peptide: GCRMGTCTVQRLAHQIYQFTDKFKDNVAPRSKISPQT[Hyp]-NH2
modifications: disulfide 2-7 (inferred); ends not checked
B6: SEQ ID NO: 167 (peptide)
peptide: GCRFGTCTVQRLAHQIYQFTDKDKDNVAPRSKVSPQG[Hyp]-NH2
modifications: disulfide 2-7 (inferred); ends not checked
B7: SEQ ID NO: 185 (peptide)
peptide: GCRTGTCTVQRLAHQIYQFTDKFKDNVAPRSKISPQW[Hyp]-NH2
modifications: disulfide 2-7 (inferred); ends not checked
B8: SEQ ID NO: 166 (peptide)
peptide: GCRTGTCTVQRLAHQIYQFTDKDKDNVAPRSNVSPNG[Hyp]-NH2
modifications: disulfide 2-7 (inferred); ends not checked
B9: SEQ ID NO: 181 (peptide)
peptide: KCNTATCTVQRLAHQIYFTDKDKDNVAPPTNVGSNG[Hyp]-NH2
modifications: disulfide 2-7 (inferred); ends not checked
B10: SEQ ID NO: 169 (peptide)
peptide: GCRFGTCTVQRLAHQIYQFTDKDKDNVAPRSKISPQG[Hyp]-NH2
modifications: disulfide 2-7 (inferred); ends not checked
B11: SEQ ID NO: 189 (peptide)
peptide: GCRTGTCTVQRLAHQIYQFTDKDKDNVAPRTKISPQG[Hyp]-NH2
modifications: disulfide 2-7 (inferred); ends not checked
B12: SEQ ID NO: 170 (peptide)
peptide: GCRTGTCTVQRLAHQIYQFTDKDKDNVAPRTNISPNG[Hyp]-NH2
modifications: disulfide 2-7 (inferred); ends not checked
B13: SEQ ID NO: 186 (peptide)
peptide: GCRTGTCTVQRLAHQIYQFTDKFKDNVAPRSKISPQY[Hyp]-NH2
modifications: disulfide 2-7 (inferred); ends not checked
B14: SEQ ID NO: 178 (peptide)
peptide: GCRTGTCTVQRLAHQIYQFTDKDKDNVAPRTNVSPQG[Hyp]-NH2
modifications: disulfide 2-7 (inferred); ends not checked
B15: SEQ ID NO: 175 (peptide)
peptide: GCRFGTCTVQRLAHQIYQFTDKDKDNVAPRSKVSPNG[Hyp]-NH2
modifications: disulfide 2-7 (inferred); ends not checked
B16: SEQ ID NO: 184 (peptide)
peptide: GCRTGTCTVQRLAHQIYQFTDKFKDNVAPRSKISPQTW
B17: SEQ ID NO: 179 (peptide)
peptide: GCRTGTCTVQRLAHQIYQFTDKDKDNVAPRSKIGPQG[Hyp]-NH2
modifications: disulfide 2-7 (inferred); ends not checked
B18: SEQ ID NO: 180 (peptide)
peptide: KCNTATCATQRLANFLVHSSNNFGAILPSTKIGSNTY
B19: SEQ ID NO: 19 (peptide)
peptide: B18 peptide with S29R, I32V, T36G
B20: SEQ ID NO: 172 (peptide)
peptide: GCRTGTCTVQRLAHQIYQFTDKDKDNVAPRSNVSPNGY
B21: SEQ ID NO: 174 (peptide)
peptide: B20 peptide with T4F, N32K, N36Q
B22: SEQ ID NO: 191 (peptide)
peptide: B20 peptide with V33I, S34G, N36Q
B23: SEQ ID NO: 182 (peptide)
peptide: B20 peptide with T4F, V33I, N36Q
B24: SEQ ID NO: 176 (peptide)
peptide: B20 peptide with S31T, N36Q
B25: SEQ ID NO: 190 (peptide)
peptide: B20 peptide with S31T, N32K, V33I
B26: SEQ ID NO: 177 (peptide)
peptide: B20 peptide with S34G
B27: SEQ ID NO: 188 (peptide)
peptide: B20 peptide with S31T, V33I
B28: SEQ ID NO: 183 (peptide)
peptide: B20 peptide with N36Q
B29: SEQ ID NO: 168 (peptide)
peptide: GCRFGTCTVQRLAHQIYQFTDKDKDNVAPRSKISPQT[Hyp]-NH2
modifications: disulfide 2-7 (inferred); ends not checked

target: T1, hAMY3R; experiment: cell-based or functional assay

hAMY3R EC50 (cAMP) [nM]	Binder
0.064	B1
0.093	B2
0.008	B3
0.098	B4
0.069	B5
0.056	B6
0.09	B7
0.056	B8
0.082	B9
0.063	B10
0.096	B11
0.064	B12
0.091	B13
0.08	B14
0.074	B15
0.09	B16
0.082	B17
0.082	B18
0.008	B19
0.066	B20
0.071	B21
0.098	B22
0.085	B23
0.076	B24
0.097	B25
0.077	B26
0.094	B27
0.088	B28
0.062	B29

target: hAM1R (human, UniProt Q16602); experiment: cell-based or functional assay

hAM1R EC50 (cAMP) [nM]	Binder
> 5000	B1
2980	B2
817	B3
> 5000	B4
> 5000	B5
2980	B6
> 5000	B7
2980	B8
> 5000	B9
2980	B10
2980	B11
2980	B12
> 5000	B13
2980	B14
2980	B15
4500	B16
2980	B17
> 5000	B18
> 5000	B19
2980	B20
133	B21
2980	B22
100	B23
2980	B24
2980	B25
2980	B26
47.6	B27
2980	B28
> 5000	B29
